Biological target: 重组人CALR融合蛋白 (recombinant human calreticulin fusion protein, residues 18-203, Example 1) (human, UniProt P27797 18-203)
Assay: SPR, Biacore 3000, curve fitting

Chain of 重组人CALR融合蛋白 (recombinant human calreticulin fusion protein, residues 18-203, Example 1) (P27797 18-203): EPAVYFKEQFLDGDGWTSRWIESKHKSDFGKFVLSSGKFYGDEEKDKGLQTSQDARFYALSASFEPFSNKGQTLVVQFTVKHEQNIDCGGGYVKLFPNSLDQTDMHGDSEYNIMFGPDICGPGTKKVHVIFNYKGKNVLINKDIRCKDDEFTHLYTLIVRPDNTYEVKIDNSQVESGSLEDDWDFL

| Kd | Binder |
| --- | --- |
| 4.88 nM | 兔单克隆抗体2G2 (rabbit monoclonal antibody 2G2 against human calreticulin) (antibody, V domains shown, Recombinant rabbit IgG made in 293F cells; also called 2G2抗体; 兔抗人CALR单克隆抗体2G2) VH: QEQLEESGGGLVQPEGSLTLTCTASGFSINNNYWICWVRQAPGKGLEWVGCISIADNSNTYYATWAKGRVTISKTSSTTVTLQMTSLTAADTATYFCARGPAVISFNLWGPGTLVTVSS VL: AQVLTQTPSSTSAAVGGTVTINCQASESVYGNNRLAWYQQKPGQPPKRLIYDASTLASGVPSRFSGSGSGKQFTLTMSGVQCDDAATYYCIGHFYSGINSISFGGGTEVVVKG |
| 4.34 nM | 兔单克隆抗体3B3 (rabbit monoclonal antibody 3B3 against human calreticulin) (antibody, V domains shown, Recombinant rabbit IgG made in 293F cells; also called 3B3抗体; 兔抗人CALR单克隆抗体3B3) VH: QSLEESGGGLVQPEGSLTLTCTASGFSFSSSYWICWVRQAPGKGLEWIGCISIDDNSNTYYASWAKGRVTISKTSSTTVTLQMTSLTAADTATYFCARGPGIIFYNLWGPGTLVTVSS VL: AQVLTQTPSSTSAAVGGTVTINCQASESVYNNNRLAWYQQKPGQPPKRLIYDASKLASGVPSRFKGSGSGKQFTLTMSGVQCDDAATYYCIGHFYTSINSVTFGGGTEVVVKG |
